Experimental findings from patent US20080050763A1 (INSTITUT PASTEUR, published 2008) are described below.

The target of this experiment is T1, IKKβ, endogenous, in Rat-1 and 5R cell extracts (rat (from the cell line Rat-1; not …, UniProt Q9QY78 1-757).
T1 construct: Endogenous protein of a cell extract; also called IKK-beta
T1 sequence (looked up): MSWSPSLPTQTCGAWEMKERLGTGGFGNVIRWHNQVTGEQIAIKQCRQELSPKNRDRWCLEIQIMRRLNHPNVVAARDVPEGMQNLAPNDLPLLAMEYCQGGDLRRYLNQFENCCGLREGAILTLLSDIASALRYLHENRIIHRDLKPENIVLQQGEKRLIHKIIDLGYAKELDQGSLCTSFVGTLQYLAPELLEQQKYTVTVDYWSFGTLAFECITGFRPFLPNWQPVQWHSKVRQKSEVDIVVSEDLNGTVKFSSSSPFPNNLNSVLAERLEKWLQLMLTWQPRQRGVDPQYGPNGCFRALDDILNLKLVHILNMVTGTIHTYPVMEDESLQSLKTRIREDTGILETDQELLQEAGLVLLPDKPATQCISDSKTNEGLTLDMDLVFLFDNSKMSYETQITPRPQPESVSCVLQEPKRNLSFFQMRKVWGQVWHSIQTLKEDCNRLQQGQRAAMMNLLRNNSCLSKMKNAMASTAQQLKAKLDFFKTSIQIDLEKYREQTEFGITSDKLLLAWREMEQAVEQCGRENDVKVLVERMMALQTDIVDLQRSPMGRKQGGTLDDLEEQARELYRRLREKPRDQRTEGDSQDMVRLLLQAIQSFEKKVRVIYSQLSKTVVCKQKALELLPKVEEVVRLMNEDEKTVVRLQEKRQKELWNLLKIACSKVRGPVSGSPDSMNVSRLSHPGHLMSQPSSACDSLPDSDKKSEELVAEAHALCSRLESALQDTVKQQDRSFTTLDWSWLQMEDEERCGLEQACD
The experiment can be described thus: glycerol gradient ultracentrifugation of cell extracts, co-migration.

Protocol: Fractions (160 μl) were collected using the Piston Gradient Fractionator (Biocomp, Serlabo) and their absorbance at 280 nm was measured. To calibrate the gradient, standard proteins were applied to glycerol gradient and in parallel. The reproducibility of each glycerol gradient was also checked by measuring in each fraction the enzymatic activity of an endogenous marker, NDP kinase (110 kDa).

B1: NEMO (NF-κB essential modulator), endogenous, in Rat-1 cell extracts (other, UniProt Q6TMG5 1-412, looked up)
chain: MSRHLWKNQLSEMVQPSGGPAEDQDMLGEESSLGKPAMLHLPSEQGTPETLQRCLEENQELRDAIRQSNQMLRERCEELLHFQVSQREEKEFLMCKFQEARKLVERLSLEKLDLRRQREQALEDLEHLKKCQQQMAEDKASVKAQVTSLLGELQESQSRLEAATKERQTLEGRIRAVSEQVRQLESEREVLQQQHSVQVDQLRMQNQSVEAALRMERQAASEEKRKLAQLQAAYHQLFQDYDSHIKSSKGMQLEDLRQQLQQAEEALVAKQELIDKLKEEAEQHKIVMETVPVLKAQADIYKADFQAERHAREKLVERKELLQEQLEQLQREFNKLKVGCHESARIEDMRKRHVETSQPPLLPAPAHHSFHLALSNQRRSPPEEPPDFCCPKCQYQAPDMDTLQIHVMECIE
notes: Endogenous protein of a cell extract; also called IKK gamma
For the molecule B1, the binding result is reported as “binds”.
